From the MegaScale stability set (Tsuboyama et al. 2023)

B1: 1ZHC (parent)
chain: HEFRDEISVLKANNPHFDKIFEKHNQLDDDIKTAEQQNASDAEVSHMKKQKLKLKDEIHSMIIEYREK

Variants of: B1
Experiment: folding stability dG (cDNA display proteolysis); higher = more stable
Conditions: PBS, room temperature

Folding stability dG [kcal/mol] of substitutions, site by site:
I20: C -0.061; A -0.159; L 0.743; T -0.398; Y -0.117; M -0.166; V 0.461
H24: R -0.124; M 1.74; V 0.939; S 0.609; F 2.06; K -0.319; L 1.68; W 1.64; Q 0.285; C 1.86; T -0.497; I 1.22; Y 2.15; A 0.782
N38: P -0.007; F 0.925; Q -0.49; S 0.358; K 0.548; G 1.55; W -0.188; E -0.059; L 0.276; A 0.467; D 0.358; Y 0.303; M 0.449; T 0.312; H 0.624; C 0.923; V -0.172; I -0.331; R 0.634
A34: Q -0.306; H -0.482; C 0.429; I -0.296; F 0.526; K 0.579; R 0.663; W 0.215; Y 0.389; M 0.859; V -0.863; L 1.21
F21: S 0.151; H -0.017; I 0.372; M 0.443; Y 0.959; C 0.68; L 0.554; W 1.79; T -0.186; V 0.263
K23: A 0.787; N 0.111; D 0.146; S 0.339; T 0.355; R 0.933; F -0.019; V 0.152; L 1.55; I 0.915; Q 1.33; E 1.16; W 1.28; C 0.886; Y 1.02; M 1.58; H 0.386
T33: N 1.07; V 1.3; M 1.26; K 1.43; L 1.14; C 0.988; I 0.854; Q 1.02; W 0.943; Y 0.829; R 1.55; F 1; A 1.14; D 0.706; G -0.016; H 0.96; S 0.866; E 0.363
Q26: S 0.329; Y -0.902; M -0.061; N 0.184; D 0.206; C -0.127; V -0.13; H -0.231; K 1.07; F -0.21; W -0.614; L 0.746; T 0.215; A 0.273; I -0.025; E -0.511; R 1.28
I31: C -0.874; V -0.196; N -0.499; H -0.743; D -0.93; L -0.093
N25: H 0.533; T 0.573; K 1.42; E 0.44; F 0.65; A 1.03; Q 1.29; M 0.989; L 1.14; D 0.646; I 0.737; G -0.067; S 0.766; C 1.41; R 1.59; V 0.471; Y 0.277; W 0.642
L27: F 0.005; I 0.13; V 0.331; C 0.277; Y -0.311; M 0.198; W -0.576
E22: V 0.395; G 0.979; H 0.392; R 1.57; M 1.27; S 1.19; D 0.198; L 1.04; Y 0.584; W 0.419; K 1.57; A 1.32; C 0.723; N 1.34; Q 1.44; T 1.26; F 0.764; I 0.633
Q36: L 1.02; E 0.904; W 0.281; S 1.17; A 1.01; Y 0.632; M 1.31; H -0.003; N 0.652; F 0.822; I 0.263; R 1.25; K 0.963; T 0.782; G 0.883; D 0.576; V 0.511; C 0.694
K32: Y 0.157; V 0.251; R 1.18; H 0.348; N 0.323; M 0.333; S 0.171; C 0.133; D -0.682; Q 0.87; T 0.187; I 0.135; F 0.278; A 0.452; L 0.566; E 0.008; W 0.34
E35: H -0.572; Q 1.17; C 0.531; I 1.68; G -0.433; A 0.281; Y 0.895; R 0.348; S 0.162; N 0.058; T 0.201; F 0.495; M 1.49; V 0.864; L 1.67; K 0.972; W 0.403
Q37: G 0.943; R 1.51; W 0.426; K 0.764; Y 0.718; N 1.38; S 1; I 0.631; F 0.569; E 0.422; L 0.867; T 0.882; A 1.07; H 1.05; C 0.94; D 0.411; V 0.447; M 0.926
A39: E 0.246; C 0.897; D 0.034; T 0.09; G 0.787; Y 0.83; R 1.33; L 1.36; N 0.078; V 0.986; P 0.131; W 1.3; I 0.873; F 1.07; H 0.973; Q 0.259; M 0.936; S 0.359; K 1.1
D29: M 1.5; S 1.2; R 1.67; E 1.24; A 1.44; Y 1.25; F 1.38; I 1.44; G 0.771; C 1.17; W 1.26; T 0.539; H 1.51; N 1.49; V 1.24; Q 1.5; K 1.79; L 1.56
K19: S 0.513; G 0.004; L 0.515; T 0.755; R 1.15; H 0.901; M 0.78; W 1.3; Y 1.52; Q 0.953; F 1.37; V 0.316; N 0.558; I 0.622
D30: I 0.712; S 0.524; K 1; F 0.817; L 1.27; C 1.21; V -0.277; A 1.4; R 1.07; T 0.396; G -0.099; Y 0.857; Q 1.25; N 0.359; W 1.09; M 1.66; E 0.784
S40: D 0.774; L 0.393; M -0.003; T -0.074; C 0.351; Q 0.039; V -0.512; I -0.234; G 0.619; R 0.251; H 0.256; E 0.469; A 0.255; N 1.12; F 0.13; P 0.855; K 0.104
D28: E 1.18; G 0.786; I 1.13; W 0.731; V 1.29; L 0.945; H 0.757; K 0.414; Q 0.794; T 1.48; A 1.37; S 0.804; M 1.21; F 0.297; Y 0.56; R 0.988
